Data published in US20210253718A1, “FRIZZLED5 PROTEIN-BINDING AGENTS” (Modmab Therapeutics Corporation, priority 2016, published 2021).
Residue numbers refer to the chain shown, from its start.

T1: FZD5 CRD (Homo sapiens, UniProt Q13467)
T1 construct: K29-T156; GPI anchor signal (C); expressed in transfected cells; host or cells: CHO cells, lentiviral pLenti-puro
T1 sequence (Q13467 29-156): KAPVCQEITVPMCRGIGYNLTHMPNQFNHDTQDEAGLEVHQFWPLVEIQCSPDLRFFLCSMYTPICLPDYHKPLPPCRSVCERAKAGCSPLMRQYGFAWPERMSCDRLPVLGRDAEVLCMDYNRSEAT

T2: FZD9 CRD (Homo sapiens, UniProt O00144)
T2 construct: G35-A161; GPI anchor signal (C); expressed in transfected cells; host or cells: CHO cells, lentiviral pLenti-puro
T2 sequence (O00144 35-161): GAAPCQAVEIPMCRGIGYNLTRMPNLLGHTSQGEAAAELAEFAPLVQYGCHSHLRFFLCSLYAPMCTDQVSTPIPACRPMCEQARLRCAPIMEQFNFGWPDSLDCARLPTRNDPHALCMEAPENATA

B1: Fab-2910: anti-FZD5 Fab with antibody variable region Fv-2910; CDR SEQ ID NOs: 35, 36, 49, 88, 125, 162 (antibody, V domains shown)
VH: EVQLVESGGGLVQPGGSLRLSCAASGFNISYSYMHWVRQAPGKGLEWVASIYSSSSSTSYADSVKGRFTISADTSKNTAYLQMNSLRAEDTAVYYCARGAMDYWGQGTLVTVSS
VL: DIQMTQSPSSLSASVGDRVTITCRASQSVSSAVAWYQQKPGKAPKLLIYSASSLYSGVPSRFSGSRSGTDFTLTISSLQPEDFATYYCQQWYGSHLITFGQGTKVEIK
B2: Fab-2912: anti-FZD5 Fab with antibody variable region Fv-2912; CDR SEQ ID NOs: 35, 36, 51, 90, 127, 164 (antibody, V domains shown)
VH: EVQLVESGGGLVQPGGSLRLSCAASGFNISYSYIHWVRQAPGKGLEWVASISSSSGYTSYADSVKGRFTISADTSKNTAYLQMNSLRAEDTAVYYCARTVRGSKKPYFSGWAMDYWGQGTLVTVSS
VL: B1 VL with W91F, G93F, S94P, H95Y
B3: Fab-2911: anti-FZD5 Fab with antibody variable region Fv-2911; CDR SEQ ID NOs: 35, 36, 50, 89, 126, 163 (antibody, V domains shown)
VH: EVQLVESGGGLVQPGGSLRLSCAASGFNIYYSSMHWVRQAPGKGLEWVAYIYPYSGYTSYADSVKGRFTISADTSKNTAYLQMNSLRAEDTAVYYCARYFWWYGFDYWGQGTLVTVSS
VL: DIQMTQSPSSLSASVGDRVTITCRASQSVSSAVAWYQQKPGKAPKLLIYSASSLYSGVPSRFSGSRSGTDFTLTISSLQPEDFATYYCQQGPWYPFTFGQGTKVEIK
B4: Fab-2898: anti-FZD5 Fab with antibody variable region Fv-2898; CDR SEQ ID NOs: 35, 36, 37, 76, 113, 152 (antibody, V domains shown)
VH: EVQLVESGGGLVQPGGSLRLSCAASGFNIYSYSMHWVRQAPGKGLEWVASIYSSSGSTSYADSVKGRFTISADTSKNTAYLQMNSLRAEDTAVYYCARAVWGLDYWGQGTLVTVSS
VL: DIQMTQSPSSLSASVGDRVTITCRASQSVSSAVAWYQQKPGKAPKLLIYSASSLYSGVPSRFSGSRSGTDFTLTISSLQPEDFATYYCQQWWGYYSLITFGQGTKVEIK
B5: Fab-2926: anti-FZD5 Fab with antibody variable region Fv-2926; CDR SEQ ID NOs: 35, 36, 65, 103, 141, 173 (antibody, V domains shown)
VH: B1 VH with S30Y, Y31S, S53P, A100G, M101L
VL: B4 VL with W92Y, G93H, Y94G, Y95G, I98F
B6: Fab-2913: anti-FZD5 Fab with antibody variable region Fv-2913; CDR SEQ ID NOs: 35, 36, 52, 91, 128, 165 (antibody, V domains shown)
VH: EVQLVESGGGLVQPGGSLRLSCAASGFNISYSSIHWVRQAPGKGLEWVASIYPYSSSTSYADSVKGRFTISADTSKNTAYLQMNSLRAEDTAVYYCARYGYYGLDYWGQGTLVTVSS
VL: B4 VL with W92G, G93V, Y94S, Y95H, S96Y, I98F
B7: Fab-2909: anti-FZD5 Fab with antibody variable region Fv-2909; CDR SEQ ID NOs: 35, 36, 48, 87, 124, 161 (antibody, V domains shown)
VH: B2 VH with Y31S, I34M
VL: B4 VL with W91S, G93S, Y95H, S96Y

Each molecule was assayed on PATU8988S cells (assay: Effect of anti-FZD5 Fabs on proliferation of pancreatic cancer cell lines (percent growth inhibition)). Conditions: Fab 2 μg/ml.
Type: cell-based, human

Molecule | percent growth inhibition, PATU8988s 2 μg/ml [%]
B1 | 8.48
B2 | 1.11
B3 | 8.24
B4 | 4.53
B5 | −15.89
B6 | −15.09
B7 | −9.95

These molecules were tested on CHO cells not expressing Frizzled CRD (assay: Flow cytometry of anti-FZD5 Fab binding to CHO cells not expressing Frizzled CRD (background)). Conditions: not given.
Text: The binding of anti-FZD5 Fabs to cell surface-expressed Frizzled protein was further determined for each member of the Frizzled family via flow cytometry and immunofluorescence analysis of a panel of 10 CHO cell lines, each ectopically over-expressing the extracellular cysteine-rich domain (CRD) of a different Frizzled protein family member.

Molecule | Median fluorescence, Frizzled CRD overexpressed on CHO cells: None
B1 | 2.92
B2 | 4.49
B3 | 4.53
B4 | 5.38
B6 | 3.85
B7 | 3.4

Each molecule was assayed on PATU8988S cells (assay: Effect of anti-FZD5 Fabs on proliferation of pancreatic cancer cell lines (percent growth inhibition)). Conditions: Fab 10 μg/ml.
Type: cell-based, human
Experimental: (§1) The effect of presently disclosed anti-FZD5 Fabs on proliferation of RNF43 loss-of-function mutant pancreatic cancer cell lines HPAFII, PATU8988S and ASPC-1; and on pancreatic cancer cell line RWP1, was tested at […] and 10 μg/ml.

Molecule | percent growth inhibition, PATU8988s 10 μg/ml [%]
B1 | −12.84
B2 | −25.71
B4 | 0.97
B5 | −36.54
B6 | −43.04
B7 | −16.04

What follows are molecules tested on RWP1 cells in the same assay as above. Conditions: Fab 10 μg/ml.
Type: cell-based, human
Experimental: as §1

Molecule | percent growth inhibition, RWP1 10 μg/ml [%]
B1 | 54.51
B2 | 27.25
B4 | 26.93
B5 | 40.20
B6 | 68.29
B7 | 14.89

What follows are molecules tested on HPAFII cells in the same assay as above. Conditions: Fab 2 μg/ml.
Type: cell-based, human
Experimental: as §1

Molecule | percent growth inhibition, HPAFII 2 μg/ml [%]
B1 | 26.86
B2 | 7.76
B3 | 2.08
B4 | 15.80
B5 | −6.88
B6 | −5.59
B7 | 2.87

Same assay, conditions: Fab 10 μg/ml

Molecule | percent growth inhibition, HPAFII 10 μg/ml [%]
B1 | 41.81
B2 | −5.41
B4 | 21.87
B5 | 4.88
B6 | −28.52
B7 | −2.57

Each molecule was assayed on ASPC-1 cells in the same assay as above. Conditions: Fab 10 μg/ml.
Type: cell-based, human
Experimental: as §1

Molecule | percent growth inhibition, ASPC-1 10 μg/ml [%]
B1 | 41.71
B2 | 1.76
B4 | 25.15
B5 | 24.71
B6 | −7.73
B7 | −9.30

The molecules below were run against T1, FZD5 CRD (assay: Immunofluorescence of anti-FZD5 Fab binding to CHO cells overexpressing Frizzled CRD). Conditions: not given.
Parameters: key: −: no binding; +: very weak binder; ++: weak binder; +++: good binder; ++++: very good binder
Summary of the method: (§2)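 First, ten CHO cell lines were made, each lentivirally expressing a different human Frizzled CRD tagged with myc and tethered by GPI. Next, anti-FZD5 Fabs were added to each line. Finally, binding was assessed by immunofluorescence and flow cytometry.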

Immunofluorescence binding, Frizzled CRD overexpressed on CHO cells: FZD5 | Molecule
++++ | B1
+++ | B2
++ | B3
+++ | B4
++++ | B5
++ | B6
+++ | B7

Each molecule was assayed against T3, FZD1 CRD (Homo sapiens, UniProt Q9UP38) in the same assay as above. Conditions: not given.
T3 construct: D112-P238; GPI anchor signal (C); expressed in transfected cells; host or cells: CHO cells, lentiviral pLenti-puro
Parameters: key: −: no binding; +: very weak binder; ++: weak binder; +++: good binder; ++++: very good binder
Summary of the method: as §2

Immunofluorescence binding, Frizzled CRD overexpressed on CHO cells: FZD1 | Molecule
− | B1
+ | B2
++ | B3
++++ | B4
− | B5
++ | B6
− | B7

These molecules were tested against T2, FZD9 CRD in the same assay as above. Conditions: not given.
Parameters: key: −: no binding; +: very weak binder; ++: weak binder; +++: good binder; ++++: very good binder
Summary of the method: as §2

Immunofluorescence binding, Frizzled CRD overexpressed on CHO cells: FZD9 | Molecule
− | B1
− | B2
− | B3
− | B4
− | B5
− | B6
− | B7
